The target of experiment [1] is T1, SIRPa variant 1 on human monocytes (homozygote v1/v1) (human, UniProt P78324 31-504).
T1 construct: the target on the cells is SIRPa v1; also called human monocytes v1/v1; SIRPa v1
The experiment is described as follows: flow cytometry on human monocytes (SIRPa v1/v1). The procedure:
FIG. 7. Binding analysis of antibodies on human monocytes (homozygote for SIRPa variant 1 (v1/v1)). […] Revelation was performed with a PE labeled mouse anti-human Fc mAb on CantoII cytometer, values corresponding to percentage of stained monocytes.
Background: A flow cytometer gives signals particle by particle.

Experiment [2] deals with T2, Recombinant hSIRPg-His (Sino Biologicals, reference 11828-H08H) (human, UniProt Q9P1W8 29-360).
T2 construct: Bought recombinant protein; also called human SIRPg recombinant protein; not shown: histidine tail
In words: Blitz, hSIRPg-His on Ni-NTA biosensor. How it is done: This method was performed with a Blitz (Forté Bio; USA; reference C22-2 No 61010-1). Recombinant hSIRPg-His (Sino Biologicals, Beijing, China; reference 11828-H08H) was immobilized at 10 μg/ml by histidine tail into a Ni-NTA biosensor (Forte Bio; USA; reference 18-0029) for 30 seconds. Then, an antibody was associated at 20 μg/mL for 120 seconds. The dissociation of antibody was made in kinetics buffer for 120 seconds. Analysis of data was made with the Blitz pro 1.2 software, which calculated association constant (ka) and dissociation constant (kd) and determined the affinity constant KD […].

The values that follow come from patent US20190382483A1 (OSE IMMUNOTHERAPEUTICS, published 2019).

T1 sequence (P78324 31-504 limits assumed, change not shown): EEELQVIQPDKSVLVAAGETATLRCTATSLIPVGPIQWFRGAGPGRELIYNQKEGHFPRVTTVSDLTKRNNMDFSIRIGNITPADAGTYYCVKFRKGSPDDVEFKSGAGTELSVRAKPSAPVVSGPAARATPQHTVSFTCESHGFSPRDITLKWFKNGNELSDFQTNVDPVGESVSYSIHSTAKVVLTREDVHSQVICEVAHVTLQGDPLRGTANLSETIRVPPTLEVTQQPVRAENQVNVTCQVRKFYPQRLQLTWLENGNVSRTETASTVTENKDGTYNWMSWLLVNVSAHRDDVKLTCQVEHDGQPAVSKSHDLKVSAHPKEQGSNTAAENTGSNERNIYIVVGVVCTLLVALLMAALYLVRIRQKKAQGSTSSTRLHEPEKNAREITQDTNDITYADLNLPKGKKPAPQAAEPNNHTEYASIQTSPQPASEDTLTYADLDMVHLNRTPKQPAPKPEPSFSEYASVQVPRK
T2 sequence (Q9P1W8 29-360): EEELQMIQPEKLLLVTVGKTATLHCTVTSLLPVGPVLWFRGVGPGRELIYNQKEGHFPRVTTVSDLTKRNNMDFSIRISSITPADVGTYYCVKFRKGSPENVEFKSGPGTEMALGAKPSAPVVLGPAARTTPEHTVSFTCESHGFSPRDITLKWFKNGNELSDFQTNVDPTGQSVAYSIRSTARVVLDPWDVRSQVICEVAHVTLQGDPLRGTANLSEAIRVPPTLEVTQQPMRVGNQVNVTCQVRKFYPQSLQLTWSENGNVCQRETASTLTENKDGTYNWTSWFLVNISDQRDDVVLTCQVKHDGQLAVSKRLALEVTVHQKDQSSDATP

B1: Kwar23 (antibody, V domains shown)
VH: EVQLQQSGAELVKPGASVKLSCTASGFNIKDYYIHWVQQRTEQGLEWIGRIDPEDGETKYAPKFQDKATITADTSSNTAYLHLSSLTSEDTAVYYCARWGAYWGQGTLVTVSS
VL: QIVLTQSPAIMSASPGEKVTLTCSASSSVSSSYLYWYQQKPGSSPKLWIYSTSNLASGVPARFSGSGSGTSYSLTISSMEAEDAASYFCHQWSSYPRTFGAGTKLELK
notes: Commercial antibody (Creative Biolabs, Cat. No TAB-453CT); also called TAB-453CT (Creative Biolabs)
For B1, the binding result in experiment [1] and in experiment [2] was “binds” in each case.
